Source: article PMC6289461, “Mek1 coordinates meiotic progression with DNA break repair by directly phosphorylating and inhibiting the yeast pachytene exit regulator Ndt80”

T1: 6xHis-Ndt80 5D DBD (Saccharomyces cerevisiae, UniProt P38830 1-340, S24D;S205D;T211D;S327D;S329D)
T1 sequence: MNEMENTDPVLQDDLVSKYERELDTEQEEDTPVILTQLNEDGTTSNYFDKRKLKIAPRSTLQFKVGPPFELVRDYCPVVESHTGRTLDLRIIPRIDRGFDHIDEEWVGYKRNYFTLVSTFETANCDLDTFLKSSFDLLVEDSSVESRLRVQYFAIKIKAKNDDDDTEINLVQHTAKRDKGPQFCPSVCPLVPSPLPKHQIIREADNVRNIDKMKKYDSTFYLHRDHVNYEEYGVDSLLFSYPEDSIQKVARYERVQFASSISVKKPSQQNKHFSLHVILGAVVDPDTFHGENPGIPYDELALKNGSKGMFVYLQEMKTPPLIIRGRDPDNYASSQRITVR

B1: Cy5-Scr duplex (dsDNA)
DNA 1: ATTGACGCGGCTTCATCTCACGTATCATT
DNA 2: AATGATACGTGAGATGAAGCCGCGTCAAT
B2: Cy3-MSE (SPS4 MSE duplex) (dsDNA)
DNA 1: ATTGACGCGCGCCACAAAAACGTATCATT
DNA 2: AATGATACGTTTTTGTGGCGCGCGTCAAT

Target: T1, 6xHis-Ndt80 5D DBD
Assay: EMSA; 50 nM DBD, 50 nM duplex; EMSA: 10 mM Tris-HCl pH 7.5, 40 mM NaCl, 4 mM MgCl2, 6% glycerol, 10 mg/ml BSA, 10 ug/ml sonicated salmon sperm DNA; 20 ul, room temperature, 30 min; 6% PAGE in 0.5X TBE
Conditions: protein: recombinant, tags: N-terminal 6xHis (pET-28a), blunt

Binder	binding result (label: 5' Cy5 on strand 1)	binding result (label: 5' Cy3 on strand 1)
B1	no binding	–
B2	–	no binding
